Reference: patent US7666582B2, “IdeS, an IgG-degrading enzyme of Streptococcus pyogenes” (Hansa Medical Research AB, priority 2001, dated 2010)

Legend:
[1] = tested on: rabbit IgG; experiment: IdeS species restrictions: rabbit IgG; assay type: biochemical
[2] = target: α 1-antitrypsin (Homo sapiens, UniProt P01009); experiment: IdeS cleavage of other human proteins: α 1-antitrypsin; assay type: biochemical
[3] = tested on: laminin; experiment: IdeS cleavage of other human proteins: laminin; assay type: biochemical
[4] = target: aprotinin (Bos taurus, UniProt P00974); experiment: IdeS cleavage of other human proteins: aprotinin; assay type: biochemical
[5] = target: T1, cystatin C (Gallus gallus, UniProt P01038); experiment: IdeS incubation with chicken cystatin C; assay type: biochemical
T1 sequence (P01038 24-139): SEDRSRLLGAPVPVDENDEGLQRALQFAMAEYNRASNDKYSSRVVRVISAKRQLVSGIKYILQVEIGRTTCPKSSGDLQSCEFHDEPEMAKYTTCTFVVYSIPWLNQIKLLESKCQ

[6] = tested on: Fc-fragment generated by papain cleavage, including 12 amino acids of the hinge region; experiment: IdeS cleavage of papain-generated Fc-fragment; assay type: biochemical, human
[7] = tested on: IgG2; experiment: IdeS activity against IgG2; assay type: biochemical, human
[8] = target: T2, cystatin C (Rattus norvegicus, UniProt P14841); experiment: IdeS incubation with rat cystatin C; assay type: biochemical
T2 sequence (P14841 21-140): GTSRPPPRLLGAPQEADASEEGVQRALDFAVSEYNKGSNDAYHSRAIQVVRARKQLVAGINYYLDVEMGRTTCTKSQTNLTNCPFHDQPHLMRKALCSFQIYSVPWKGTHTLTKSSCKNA

[9] = tested on: different subclasses of IgG; experiment: IdeS activity against the subclasses of IgG; assay type: biochemical, human
[10] = target: T3, antimicrobial peptide LL-37 (Homo sapiens, UniProt P49913); experiment: IdeS activity towards peptides: LL-37; assay type: biochemical
T3 construct: antimicrobial peptide LL-37
T3 sequence (P49913 134-170 limits assumed): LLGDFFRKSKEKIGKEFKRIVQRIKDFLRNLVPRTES

[11] = tested on: human IgE; experiment: IdeS cleavage assay of Ig classes: IgE; assay type: biochemical; conditions: purified IdeS, 2 h at 37° C.
Experimental: (§1) For standard IdeS activity assays, bacteria cultures were grown to OD620=0.4. Bacteria were pelleted by centrifugation and supernatants were sterile-filtered through a 0.22 μm membrane (Millipore) prior to use. For activity assays, […] of supernatant were mixed with 5 μl of IgG (10 mg/ml, Sigma) and the volume was adjusted with PBS to 100 μl. For screening of IdeS activity in different S. progenes strains, E64 was added to a final concentration of 40 μM. The mixtures were incubated at 37° C. for 30 min and samples were analyzed by 12% SDS-PAGE. For cleavage assays of different classes of Ig, purified IdeS (0.3 μg/ml) was incubated with 3 μg Ig for 2 h at 37° C., and analyzed by 12% SDS-PAGE analysis.

[12] = target: T4, H-kininogen (Homo sapiens, UniProt P01042); experiment: IdeS cleavage of other human proteins: H-kininogen; assay type: biochemical
T4 sequence (P01042 19-644): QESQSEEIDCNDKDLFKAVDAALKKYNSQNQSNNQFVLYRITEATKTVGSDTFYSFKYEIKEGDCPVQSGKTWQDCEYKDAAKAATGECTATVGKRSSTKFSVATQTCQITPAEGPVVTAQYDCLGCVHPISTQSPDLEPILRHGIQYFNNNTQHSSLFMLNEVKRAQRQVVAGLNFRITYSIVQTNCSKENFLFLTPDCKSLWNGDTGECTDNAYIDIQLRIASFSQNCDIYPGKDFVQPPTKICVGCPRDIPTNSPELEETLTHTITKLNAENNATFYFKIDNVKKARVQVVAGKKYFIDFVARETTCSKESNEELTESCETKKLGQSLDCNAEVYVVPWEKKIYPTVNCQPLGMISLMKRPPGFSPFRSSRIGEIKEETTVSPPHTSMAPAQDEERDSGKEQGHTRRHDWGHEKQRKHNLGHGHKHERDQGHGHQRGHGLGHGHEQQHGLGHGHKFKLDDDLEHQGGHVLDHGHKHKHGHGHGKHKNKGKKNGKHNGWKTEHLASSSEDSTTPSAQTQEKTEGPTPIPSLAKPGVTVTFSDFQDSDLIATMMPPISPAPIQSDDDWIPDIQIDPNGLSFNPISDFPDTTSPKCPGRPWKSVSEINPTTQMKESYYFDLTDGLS

[13] = target: T5, cystatin C (Homo sapiens, UniProt P01034); experiment: IdeS cleavage of other human proteins: cystatin C; assay type: biochemical
T5 sequence (P01034 27-146): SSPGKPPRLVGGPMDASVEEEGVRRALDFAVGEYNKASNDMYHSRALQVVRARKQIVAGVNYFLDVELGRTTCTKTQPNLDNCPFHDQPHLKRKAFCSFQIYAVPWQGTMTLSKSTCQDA

[14] = tested on: human IgD; experiment: IdeS cleavage assay of Ig classes: IgD; assay type: biochemical; conditions: purified IdeS, 2 h at 37° C.
Experimental: as §1

[15] = tested on: IgG bound to AP1 bacteria; experiment: IdeS cleavage of IgG bound to S. pyogenes bacterial surface; assay type: cell-based, human; conditions: AP1 bacteria after absorption of non-immune or immune plasma
[16] = target: lactoferrin (Homo sapiens, UniProt P02788); experiment: IdeS cleavage of other human proteins: lactoferrin; assay type: biochemical
lactoferrin, sequence (P02788 20-710): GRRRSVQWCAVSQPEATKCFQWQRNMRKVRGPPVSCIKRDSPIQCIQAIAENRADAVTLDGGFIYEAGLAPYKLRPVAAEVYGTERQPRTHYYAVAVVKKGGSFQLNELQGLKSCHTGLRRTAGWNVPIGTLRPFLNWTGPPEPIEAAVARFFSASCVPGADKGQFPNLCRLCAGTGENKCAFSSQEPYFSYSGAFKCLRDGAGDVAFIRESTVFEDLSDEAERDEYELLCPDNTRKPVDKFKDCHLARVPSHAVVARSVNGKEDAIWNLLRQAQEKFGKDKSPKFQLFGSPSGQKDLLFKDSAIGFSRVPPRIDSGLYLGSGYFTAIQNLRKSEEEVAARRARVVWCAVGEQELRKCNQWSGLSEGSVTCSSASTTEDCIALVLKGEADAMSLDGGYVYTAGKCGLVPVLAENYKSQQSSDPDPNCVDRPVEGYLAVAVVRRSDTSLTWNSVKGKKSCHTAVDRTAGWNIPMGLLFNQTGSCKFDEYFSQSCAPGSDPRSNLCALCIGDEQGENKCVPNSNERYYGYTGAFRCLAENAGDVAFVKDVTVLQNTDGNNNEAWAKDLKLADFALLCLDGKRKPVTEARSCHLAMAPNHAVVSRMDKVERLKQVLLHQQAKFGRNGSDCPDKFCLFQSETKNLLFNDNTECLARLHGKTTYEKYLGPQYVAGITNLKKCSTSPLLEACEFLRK

[17] = tested on: whole human plasma; experiment: Incubation of human plasma with IdeS; assay type: biochemical
[18] = target: transferrin (Homo sapiens, UniProt P02787); experiment: IdeS cleavage of other human proteins: transferrin; assay type: biochemical
transferrin, sequence (P02787 20-698): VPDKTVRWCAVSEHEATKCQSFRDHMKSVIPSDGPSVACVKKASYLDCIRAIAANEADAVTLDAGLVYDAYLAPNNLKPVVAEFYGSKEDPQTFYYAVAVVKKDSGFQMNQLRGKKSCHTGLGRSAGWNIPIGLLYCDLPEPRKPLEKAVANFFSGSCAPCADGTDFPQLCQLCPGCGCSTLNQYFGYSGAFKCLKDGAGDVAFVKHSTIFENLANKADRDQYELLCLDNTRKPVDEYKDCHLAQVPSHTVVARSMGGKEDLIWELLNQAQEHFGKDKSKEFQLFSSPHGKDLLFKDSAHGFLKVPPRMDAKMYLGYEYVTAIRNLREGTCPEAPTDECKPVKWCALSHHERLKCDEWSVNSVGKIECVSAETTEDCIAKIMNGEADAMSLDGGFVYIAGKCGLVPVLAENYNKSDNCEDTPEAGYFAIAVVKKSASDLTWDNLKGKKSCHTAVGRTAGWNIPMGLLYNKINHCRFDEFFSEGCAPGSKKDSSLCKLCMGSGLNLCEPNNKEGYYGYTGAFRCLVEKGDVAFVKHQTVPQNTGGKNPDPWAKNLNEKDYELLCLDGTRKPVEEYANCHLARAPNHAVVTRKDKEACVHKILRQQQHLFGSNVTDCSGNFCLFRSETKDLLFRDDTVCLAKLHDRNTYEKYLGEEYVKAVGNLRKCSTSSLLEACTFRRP

[19] = tested on: human IgA; experiment: IdeS cleavage assay of Ig classes: IgA; assay type: biochemical; conditions: purified IdeS, 2 h at 37° C.
Experimental: as §1

[20] = target: T6, cystatin D (Homo sapiens, UniProt P28325); experiment: IdeS cleavage of other human proteins: cystatin D; assay type: biochemical
T6 sequence (P28325 21-142): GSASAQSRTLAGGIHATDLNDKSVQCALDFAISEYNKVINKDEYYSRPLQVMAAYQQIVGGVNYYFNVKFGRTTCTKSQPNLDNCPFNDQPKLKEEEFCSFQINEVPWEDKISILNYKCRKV

[21] = target: albumin (Homo sapiens, UniProt P02768); experiment: IdeS cleavage of other human proteins: albumin; assay type: biochemical
[22] = IdeS activity towards peptides: Z-LVG-CHN2; assay type: biochemical; conditions: excess IdeS
[23] = tested on: synthetic peptide homologous to amino acids 234 to 241 of human IgG; experiment: IdeS activity towards peptides: IgG hinge peptide; assay type: biochemical
[24] = tested on: goat IgG; experiment: IdeS species restrictions: goat IgG; assay type: biochemical
[25] = tested on: human IgM; experiment: IdeS cleavage assay of Ig classes: IgM; assay type: biochemical; conditions: purified IdeS, 2 h at 37° C.
Experimental: as §1

[26] = tested on: human IgG; experiment: IdeS cleavage assay of Ig classes: IgG; assay type: biochemical
Experimental: as §1

α 1-antitrypsin, sequence (P01009 25-418): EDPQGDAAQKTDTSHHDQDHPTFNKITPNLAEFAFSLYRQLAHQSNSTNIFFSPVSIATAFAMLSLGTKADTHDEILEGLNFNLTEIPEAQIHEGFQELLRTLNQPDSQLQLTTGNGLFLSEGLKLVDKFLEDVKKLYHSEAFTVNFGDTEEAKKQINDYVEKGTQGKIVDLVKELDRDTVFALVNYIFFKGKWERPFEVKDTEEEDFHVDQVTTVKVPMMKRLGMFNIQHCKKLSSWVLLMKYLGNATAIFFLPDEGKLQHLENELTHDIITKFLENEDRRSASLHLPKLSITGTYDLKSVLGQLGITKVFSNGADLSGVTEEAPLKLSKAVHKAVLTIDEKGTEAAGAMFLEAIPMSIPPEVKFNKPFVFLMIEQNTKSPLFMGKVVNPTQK

B1: IdeS: new extracellular cysteine protease produced by S. pyogenes, highly specific for IgG; SEQ ID NO: 1 (protein)
chain: DSFSANQEIRYSEVTPYHVTSVWTKGVTPPANFTQGEDVFHAPYVANQGWYDITKTFNGKDDLLCGAATAGNMLHWWFDQNKDQIKRYLEEHPEKQKINFNGEQMFDVKEAIDTKNHQLDSKLFEYFKEKAFPYLSTKHLGVFPDHVIDMFINGYRLSLTNHGPTPVKEGSKDPRGGIFDAVFTRGDQSKLLTSRHDFKEKNLKEISDLIKKELTEGKALGLSHTYANVRINHVINLWGADFDSNGNLKAIYVTDSDSNASIGMKKYFVGVNSAGKVAISAKEIKEDNIGAQVLGLFTLSTGQDSWNQTN
modifications: S. Pyogenes
- cleavage of rabbit IgG [1]: cleave
- cleavage products, α 1-antitrypsin [2]: No cleavage products could be detected
- cleavage products, laminin [3]: No cleavage products could be detected
- cleavage products, aprotinin [4]: No cleavage products could be detected
- cleavage products, cystatin C from chicken [5]: No cleavage products could be observed
- cleavage of papain-generated Fc-fragment [6]: is cleaved
- digestion of IgG2 compared to the other subclasses [7]: less efficiently digested
- cleavage products, cystatin C from rat [8]: No cleavage products could be observed
- digestion of the different subclasses of IgG [9]: all were susceptible for IdeS digestion
- degradation of LL-37 [10]: did not reveal any degradation
- degradation of human IgE [11]: only IgG was degraded
- cleavage products, H-kininogen [12]: No cleavage products could be detected
- cleavage products, cystatin C [13]: No cleavage products could be detected
- degradation of human IgD [14]: only IgG was degraded
- cleavage of IgG bound to the bacterial surface (31 kDa band) [15]: in both cases IgG was cleaved
- cleavage products, lactoferrin [16]: No cleavage products could be detected
- degradation products in human plasma ([17]; purified IdeS): only the 31 kDa IgG-derived band and no additional degradation products could be identified
- cleavage products ([17]; whole human plasma, further studies): No cleavage products could be detected
- cleavage products, transferrin [18]: No cleavage products could be detected
- degradation of human IgA [19]: only IgG was degraded
- cleavage products, cystatin D [20]: No cleavage products could be detected
- cleavage products, albumin [21]: No cleavage products could be detected
- cleavage of Z-LVG-CHN2 [22]: Neither was the synthetic peptide Z-LVG-CHN2, which inhibits IdeS activity, cleaved
- degradation of synthetic peptide (amino acids 234 to 241 of human IgG) [23]: did not reveal any degradation
- cleavage of goat IgG [24]: cleave
- degradation of human IgM [25]: only IgG was degraded
- degradation of human IgG ([26]; purified IdeS, 2 h at 37° C.): only IgG was degraded
- cleavage of human IgG ([26]; species restrictions): cleave
